One substance from patent publication US20210283246A1 can be followed below.

The target of the test is HBsAg (patient serum). The test can be described thus: Jacalin-bead fractionation of patient serum, HBsAg measured by CLIA.

“Jacalin lectin (from UniProt P18670 1-133)” yielded a share of the total serum HBsAg that binds to Jacalin of 5%.
